Reference: publication PMC7895908

What was measured:
Test in all cases: ITC
YFP = YFP (UniProt P42212)
[1] = target: mEGFP (monomeric enhanced GFP) (UniProt P42212)
mVenus = mVenus (UniProt P42212)
sfGFP (super folder GFP) = sfGFP (super folder GFP) (UniProt P42212)

“GGGAGCUUCUGGACUGCGAUGGGAGCACGAAACGUCGUGGCGCAAUUGGGUGGGGAAAGUCCUUAAAAGAGGGCCACCACAGAAGCUCCC [free RNA aptamer against GFP family]” gave a Kd (YFP) of 4 nM, a Kd [1] of 5 nM and a Kd (mVenus) of 5 nM. The Kd (sfGFP (super folder GFP)) was 13 nM.
